Experimental data reported in the supplement of paper PMC11908140.

B1: library; numbered along this chain (parent)
chain: MRKPRAAVGSGHRKQAASQEGRQKHAKNNSQAKPSACDGLARQPEEVVLQASVSSYHLFRDVAEVTAFRGSLLSWYDQEKRDLPWRRRAEDEMDLDRRAYAVWVSEVMLQQTQVATVINYYTGWMQKWPTLQDLASASLEEVNQLWAGLGYYSRGRRLQEGARKVVEELGGHMPRTAETLQQLLPGVGRYTAGAIASIAFGQATGVVDGNVARVLCRVRAIGADPSSTLVSQQLWGLAQQLVDPARPGDFNQAAMELGATVCTPQRPLCSQCPVESLCRARQRVEQEQLLASGSLSGSPDVEECAPNTGQCHLCLPPSEPWDQTLGVVNFPRKASRKPPREESSATCVLEQPGALGAQILLVQRPNSGLLAGLWEFPSVTWEPSEQLQRKALLQELQRWAGPLPATHLRHLGEVVHTFSHIKLTYQVYGLALEGQTPVTTVPPGARWLTQEEFHTAAVSTAMKKVFRVYQGQQPGTCMGSKRSQVSSPCSRKKPRMGQQVLDNFFRSHISTDAHSLNSAAQ

Variants of: B1
Test: 8OG:A repair function score (normalized; synonymous = 0, nonsense = -1) (normalized log-likelihood score); higher = more repair activity (WT-like)
Details: with 8OG:A DNA repair reporter (GFP) in HEK-293 MUTYH KO cells
Description: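 Saturation mutagenesis (NNN codon scan) of the MUTYH cDNA (521-aa nuclear isoform NM_001048174.1 / NP_001041639), stably expressed under doxycycline induction in HEK-293 MUTYH knockout cells. Cells were co-transfected with an 8OG:A-bearing GFP repair reporter plus mCherry and sorted 72 h later into GFP+ and GFP− bins, three replicates per tile. The Rosace log2 enrichment (GFP+ vs GFP−) was converted per tile to a normalized function score with synonymous variants centered at 0 and nonsense variants (codons 1-471) at -1; low-abundance variants were removed.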

Row | Variant | 8OG:A repair function score
1 | Q239T | -0.143
2 | G170M | -0.0605
3 | T380S | 0.139
4 | A345H | -0.107
5 | A305I | 0.00729
6 | R98Q | -0.236
7 | N143A | -0.35
8 | I421D | -0.852
9 | A162H | -1.08
10 | Q132F | -0.327
11 | F59P | -0.371
12 | P247K | -1.03
13 | L241I | -0.264
14 | K492C | 0.0201
15 | L396D | -1.33
16 | E319Q | 0.0567
17 | P264F | -0.223
18 | L158H | -0.935
19 | Q472H | -0.152
20 | R364Y | -0.593
21 | H407L | -0.0178
22 | P383D | 0.0298
23 | L295S | -0.0013
24 | G326P | -0.475

Row | Variant | 8OG:A repair function score
25 | L370H | -0.297
26 | Q394Y | -0.129
27 | E256C | -0.939
28 | W381K | -0.184
29 | A371C | -0.182
30 | R81P | -0.88
31 | P174M | -0.732
32 | H454A | 0.182
33 | S419R | -0.334
34 | A147I | -0.125
35 | Q113W | -0.172
36 | V465C | 0.0124
37 | V362T | -0.028
38 | K3D | -0.233
39 | N329T | -0.361
40 | E452A | -0.387
41 | F330V | -0.145
42 | Q472L | 0.022
43 | P299F | 0.00405
44 | E341G | -0.208
45 | I118T | -0.0724
46 | E256T | -0.514
47 | G412V | -0.894
48 | A520Q | 0.00885

Row | Variant | 8OG:A repair function score
49 | M255T | -0.883
50 | D243I | -0.858
51 | T380R | 0.162
52 | F466R | -0.568
53 | T440P | -0.041
54 | P339W | -0.126
55 | R219T | -0.638
56 | W381P | -0.215
57 | I359N | -0.425
58 | E319R | 0.0109
59 | L83R | -0.559
60 | Q363L | -0.242
61 | G236Y | -0.152
62 | D224G | -0.936
63 | V415M | 0.0821
64 | A192I | -1.07
65 | E167G | 0.00335
66 | R81K | -0.209
67 | E451A | -0.0912
68 | P437V | -0.0519
69 | L49T | 0.0602
70 | Q233T | 0.244
71 | L257R | -1.09
72 | S227I | -0.232

Row | Variant | 8OG:A repair function score
73 | E319A | -0.00684
74 | Y425A | -0.637
75 | Q232L | -0.326
76 | G148E | -0.792
77 | G353R | -0.038
78 | N366S | 0.0203
79 | Q435A | -0.0344
80 | W75H | -0.412
81 | A89R | -0.0424
82 | H416M | -0.755
83 | Q323H | -0.0776
84 | G497C | -0.127
85 | G434W | 0.0509
86 | L180W | -0.713
87 | L370I | -0.377
88 | Q111W | -0.869
89 | G471V | 0.00448
90 | Q388Y | -0.235
91 | V114A | 0.0344
92 | E452P | -0.856
93 | P316R | -0.109
94 | G148F | -0.794
95 | Q202M | -0.234
96 | A259C | -0.242

Row | Variant | 8OG:A repair function score
97 | Q426G | -0.158
98 | L257H | -0.401
99 | Q386L | 0.304
100 | G412I | -0.788
101 | R336N | -0.101
102 | F453E | -1.1
103 | G444N | -0.198
104 | F250H | -0.485
105 | W374H | -0.924
106 | E160I | -0.0174
107 | R279N | -0.123
108 | S459N | -0.679
109 | D208Y | -1.01
110 | L373G | -0.502
111 | E140H | -0.253
112 | V104H | -1.31
113 | E319I | -0.0159
114 | E90H | -0.0294
115 | P84A | -0.138
116 | G353I | -0.129
117 | L295Y | -0.0185
118 | A519Y | 0.0154
119 | C311G | -0.505
120 | Q351H | 0.0225

Row | Variant | 8OG:A repair function score
121 | Q394G | 0.266
122 | S153Q | -0.127
123 | L349F | -0.112
124 | S55H | -0.00673
125 | V327D | -0.777
126 | D91M | 0.00436
127 | G401D | 0.0297
128 | T66N | -0.0376
129 | T308W | 0.00192
130 | R213W | -1
131 | R446S | -0.255
132 | C262W | -0.941
133 | V218P | -1.04
134 | P267A | -0.131
135 | Q470W | -0.0772
136 | H410Q | -0.291
137 | L295A | -0.00496
138 | A51H | 0.0322
139 | G309C | -0.165
140 | P264V | -0.0712
141 | R332A | -0.0476
142 | A99F | -1.14
143 | L237P | -0.931
144 | Q233D | -0.318

Row | Variant | 8OG:A repair function score
145 | I421F | -0.142
146 | V102K | -1.71
147 | R81D | -0.524
148 | S227L | -0.119
149 | S318L | -0.0905
150 | T455L | -0.171
151 | H410E | -0.292
152 | A431K | 0.126
153 | I509L | 0.00266
154 | T424G | -0.293
155 | V327R | -0.583
156 | L501R | 0.00197
157 | Y190R | -1.06
158 | V218F | -0.436
159 | C347K | -1.08
160 | V284C | -0.0207
161 | A194K | -1.06
162 | P174S | -0.753
163 | P365R | -0.0845
164 | A220H | -0.555
165 | G193R | -0.0604
166 | Q498C | -0.0114
167 | P306F | -0.0382
